We go through one substance from publication PMC8172134.

The experiment addresses SARS-CoV-2 spike prefusion stabilized ectodomain trimer (SARS-CoV-2) (UniProt P0DTC2). Description: cryo-EM structure.

47D11 Fab fragment displayed a stoichiometry N (Fab per spike trimer) of 2.
